Test [1] concerns the target yeast-displayed wild-type CD19 (extracellular domain) (human) (UniProt P15391). Briefly: flow cytometry, yeast display, CD19-Aga2p, 22 °C pre-treat; mAb binding against CD19 per yeast.
For test [2] the target is unchanged. Briefly: flow cytometry, yeast display, Aga2p-CD19, 22 °C pre-treat; mAb binding against CD19 per yeast.
Test [3] has as its target CD19-FnEGFR (FIG. 15A). Briefly: flow cytometry, yeast display, left panel; FMC63 + GaM-A647 (FL4-A) against biotin-EGFR + strep-A488 (FL1-A); Q8 64.9 also printed.
For test [4], the target named is CD19-scFvHER2 (FIG. 15A). Briefly: flow cytometry, yeast display, right panel; FMC63 + GaM-A647 (FL4-A) against biotin-HER2 + strep-A488 (FL1-A); Q8 30.1 also printed.
For test [5], the target named is CD19-scFvHER2 (FIG. 15A). Briefly: flow cytometry, yeast display, right panel; FMC63 + GaM-A647 (FL4-A) against biotin-HER2 + strep-A488 (FL1-A).
The target of test [6] is CD19-FnEGFR (FIG. 15A). Briefly: flow cytometry, yeast display, left panel; FMC63 + GaM-A647 (FL4-A) against biotin-EGFR + strep-A488 (FL1-A).

Sequence of yeast-displayed wild-type CD19 (extracellular domain) (human) (P15391 20-291): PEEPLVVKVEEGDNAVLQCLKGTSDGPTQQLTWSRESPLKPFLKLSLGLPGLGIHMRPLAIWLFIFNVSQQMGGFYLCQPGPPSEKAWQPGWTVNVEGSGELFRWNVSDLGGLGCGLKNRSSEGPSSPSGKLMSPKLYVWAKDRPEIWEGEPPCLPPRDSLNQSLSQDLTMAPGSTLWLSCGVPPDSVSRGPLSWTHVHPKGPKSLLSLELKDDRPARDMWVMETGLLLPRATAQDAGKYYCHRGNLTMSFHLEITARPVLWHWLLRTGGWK

Take 4G7 (antibody): the percent of yeast in gate R8 (CD19-displaying, no mAb signal; taken as the lower dashed gate) in test [1] stood at 51.6%. The percent of yeast in gate R7 (CD19-displaying, no mAb signal; taken as the lower dashed gate) in test [2] was 37.2%.
On to FMC63 (antibody), for which the Q5, percent of events positive for FMC63 and negative for biotin-target is 35.1 in test [3] and 31.8 in test [4]. Moreover, the Q6, percent of events positive for FMC63 and biotin-target came to 35.1 in test [5] and 0.034 in test [6].

The values above are taken from patent US20210079060A1.
